Experiments:
[1] = molecular target: T1, soluble H-2K^b (soluble extracellular domains; heavy chain residues 1-274 with C-terminal His-tag and β2-microglobulin residues 1-99) (mouse); assay: inhibition assay with soluble H-2K^b, 4° C.
T1 chain: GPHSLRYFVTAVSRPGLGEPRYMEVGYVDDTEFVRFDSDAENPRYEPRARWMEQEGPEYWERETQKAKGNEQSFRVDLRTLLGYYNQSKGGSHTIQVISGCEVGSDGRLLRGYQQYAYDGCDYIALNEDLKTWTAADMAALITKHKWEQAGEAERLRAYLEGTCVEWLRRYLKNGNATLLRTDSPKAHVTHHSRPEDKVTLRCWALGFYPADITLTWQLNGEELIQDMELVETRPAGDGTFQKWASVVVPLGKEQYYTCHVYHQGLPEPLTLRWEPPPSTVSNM

[2] = molecular target: T1, soluble H-2K^b (soluble extracellular …); assay: inhibition assay with soluble H-2K^b, 23° C.
[3] = molecular target: T1, soluble H-2K^b (soluble extracellular …); assay: inhibition assay with soluble H-2K^b, 37° C.

Work on RGYVYQGL (modifications not checked) [VSV8 (RGYVYQGL), Vesicular stomatitis virus NP52-59] yielded a Kd [1] of 34 nM, a Kd [2] of 27 nM and a Kd [3] of 163 nM.

— patent US20090317414A1, “CANCER VACCINE COMPRISING A MUCIN 1 (MUC1) T CELL EPITOPE-DERIVED PEPTIDE” (4G VACCINES PTY LTD, priority 2006, published 2009)
